Source: article doi:10.1101/2022.11.04.515170, “Insights into cargo sorting by SNX32 in neuronal and non-neuronal cells: physiological implications in neurite outgrowth” (bioRxiv, 2022)
Numbering of substitutions follows the chain as printed. In names and notes the source's numbering stands.

Columns and labels:
Settings in all cases: partners not purified
GFP-SNX4 Y258E = molecular target: T1, GFP-SNX4 Y258E (UniProt O95219 1-450, Y258E); assay: co-IP; GST-GFP nanobody (GBP) on glutathione Sepharose beads, 2 h at 4°C with HeLa cell lysate overexpressing GFP-SNX4 (WT or mutant) and HA-SNX32 (WT or mutant); immunoblot anti-GFP and anti-HA
T1 construct: Sorting nexin 4 (SNX4) with Y258E in the BAR domain, by site directed mutagenesis of GFP-tagged SNX4; also called pEGFP SNX4Y258E; source: HeLa, transfected, overexpressed, in lysate
T1 sequence (looked up): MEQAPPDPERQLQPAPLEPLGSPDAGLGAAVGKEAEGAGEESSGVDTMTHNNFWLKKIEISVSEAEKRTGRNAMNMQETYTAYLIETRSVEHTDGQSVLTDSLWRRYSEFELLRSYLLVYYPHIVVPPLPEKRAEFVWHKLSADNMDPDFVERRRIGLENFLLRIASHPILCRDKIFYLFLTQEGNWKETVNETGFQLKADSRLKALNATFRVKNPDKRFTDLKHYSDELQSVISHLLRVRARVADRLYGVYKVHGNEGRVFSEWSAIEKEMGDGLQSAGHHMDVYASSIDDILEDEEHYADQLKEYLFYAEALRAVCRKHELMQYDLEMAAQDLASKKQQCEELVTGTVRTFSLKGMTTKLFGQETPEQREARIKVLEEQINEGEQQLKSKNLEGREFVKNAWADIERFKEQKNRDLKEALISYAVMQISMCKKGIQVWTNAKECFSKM

GFP-SNX4 S448R = molecular target: T2, GFP-SNX4 S448R (UniProt O95219 1-450, S448R); assay: as above
T2 construct: Sorting nexin 4 (SNX4) with S448R in the BAR domain, by site directed mutagenesis of GFP-tagged SNX4; also called pEGFP SNX4S448R; source: HeLa, transfected, overexpressed, in lysate
T2 sequence (looked up): T1 sequence (looked up) with E258Y, S448R

GFP-SNX32 WT = molecular target: T3, GFP-SNX32 WT (UniProt Q86XE0 1-403); assay: co-IP; GST-GFP nanobody (GBP) on glutathione Sepharose beads, 2 h at 4°C with HEK293T cell lysate overexpressing GFP-tagged and HA-tagged SNX proteins; washed with PBS; immunoblot anti-GFP and anti-HA
T3 construct: Sorting nexin 32 (SNX32), full length; pEGFP C1 SNX32 FL, gift from Prof Peter J Cullen; also called GFP-SNX32 wild type; GFP-tagged SNX32; source: HEK293T or HeLa, transiently transfected, in lysate; SH-SY5Y, lentivirally transduced, stably expressing, in lysate
T3 sequence (looked up): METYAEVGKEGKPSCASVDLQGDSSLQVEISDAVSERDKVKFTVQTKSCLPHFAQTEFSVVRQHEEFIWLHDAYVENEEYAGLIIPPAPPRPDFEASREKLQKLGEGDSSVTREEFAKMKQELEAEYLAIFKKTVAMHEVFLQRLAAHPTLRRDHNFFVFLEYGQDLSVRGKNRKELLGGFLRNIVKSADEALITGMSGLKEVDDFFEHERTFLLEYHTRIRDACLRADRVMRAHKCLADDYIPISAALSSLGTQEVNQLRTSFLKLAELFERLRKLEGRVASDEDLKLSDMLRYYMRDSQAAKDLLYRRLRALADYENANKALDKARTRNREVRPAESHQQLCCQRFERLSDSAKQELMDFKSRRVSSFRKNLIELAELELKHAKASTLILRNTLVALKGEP

GFP-SNX8 = molecular target: T4, GFP-SNX8 (UniProt Q9Y5X2 1-465); assay: as above
T4 construct: Sorting nexin 8 (SNX8); source: HEK293T, transfected, overexpressed, in lysate
T4 sequence (looked up): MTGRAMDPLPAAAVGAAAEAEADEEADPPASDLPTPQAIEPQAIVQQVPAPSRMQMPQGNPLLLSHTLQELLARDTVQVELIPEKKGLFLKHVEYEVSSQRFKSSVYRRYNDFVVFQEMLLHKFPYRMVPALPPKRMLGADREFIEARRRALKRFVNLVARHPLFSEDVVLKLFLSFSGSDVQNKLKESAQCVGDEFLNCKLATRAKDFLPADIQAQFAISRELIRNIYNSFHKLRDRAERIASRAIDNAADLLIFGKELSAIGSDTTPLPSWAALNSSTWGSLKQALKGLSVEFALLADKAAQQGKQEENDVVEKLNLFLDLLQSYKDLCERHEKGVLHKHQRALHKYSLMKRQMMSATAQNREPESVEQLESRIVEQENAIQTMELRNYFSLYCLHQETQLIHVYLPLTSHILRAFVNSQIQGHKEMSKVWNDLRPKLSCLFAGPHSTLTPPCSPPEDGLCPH

GFP-SNX1 = molecular target: T5, GFP-SNX1 (UniProt Q13596 1-522); assay: as above
T5 construct: Sorting nexin 1 (SNX1); pEGFP C1 SNX1, gift from Prof Peter J Cullen; also called GFP-SNX1 WT; source: HEK293T or HeLa, transfected, overexpressed, in lysate
T5 sequence (Q13596 whole entry): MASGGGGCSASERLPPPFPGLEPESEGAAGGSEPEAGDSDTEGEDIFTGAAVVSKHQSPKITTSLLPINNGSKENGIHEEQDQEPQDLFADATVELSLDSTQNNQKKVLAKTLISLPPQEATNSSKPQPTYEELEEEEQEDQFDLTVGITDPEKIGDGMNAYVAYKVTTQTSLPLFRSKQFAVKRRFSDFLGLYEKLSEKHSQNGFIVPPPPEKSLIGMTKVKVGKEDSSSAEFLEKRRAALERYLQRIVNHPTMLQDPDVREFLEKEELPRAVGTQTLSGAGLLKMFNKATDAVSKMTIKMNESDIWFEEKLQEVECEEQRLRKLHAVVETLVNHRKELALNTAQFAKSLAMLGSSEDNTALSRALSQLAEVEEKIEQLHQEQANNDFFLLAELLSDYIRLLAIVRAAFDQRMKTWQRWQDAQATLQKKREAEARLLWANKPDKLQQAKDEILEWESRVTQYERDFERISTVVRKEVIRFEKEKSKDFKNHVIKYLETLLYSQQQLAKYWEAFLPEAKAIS

GFP-SNX4 = molecular target: T6, GFP-SNX4 (UniProt O95219 1-450); assay: co-IP; GST-GFP nanobody (GBP) on glutathione Sepharose beads, 2 h at 4°C with HeLa cell lysate overexpressing GFP-SNX4 (WT or mutant) and HA-SNX32 (WT or mutant); immunoblot anti-GFP and anti-HA
T6 construct: Sorting nexin 4 (SNX4); pEGFP C1 SNX4, gift from Prof Peter J Cullen; also called GFP-SNX4 WT; source: HEK293T or HeLa, transfected, overexpressed, in lysate
T6 sequence (looked up): T1 sequence (looked up) with E258Y

B1: HA-SNX32 FL (natural protein, UniProt Q86XE0 1-403, looked up)
chain: T3 sequence (looked up)
notes: Sorting nexin 32 (SNX32), full length (FL); pcDNA3 HA N(I) SNX32 FL, subcloned from pEGFP C1 SNX32 FL; also called HA-SNX32 WT; Sorting nexin 32; source: HEK293T or HeLa, transfected, overexpressed, in lysate
GFP-SNX4 Y258E
  ratio of HA to GFP band intensity: 0.33
GFP-SNX4 S448R
  ratio of HA to GFP band intensity: 0.23
GFP-SNX32 WT
  ratio of HA to GFP band intensity: 0.85
GFP-SNX8
  ratio of HA to GFP band intensity: 0.62
GFP-SNX1
  ratio of HA to GFP band intensity: 0.98

B2: HA-SNX32 R220E (natural protein, UniProt Q86XE0 1-403, looked up)
chain: T3 sequence (looked up) with R220E
notes: SNX32 with R220E, by site directed mutagenesis of HA-tagged SNX32; source: HeLa, transfected, overexpressed, in lysate
GFP-SNX4
  ratio of HA to GFP band intensity: 1.02

B3: HA-SNX32 R366E (natural protein, UniProt Q86XE0 1-403, looked up)
chain: T3 sequence (looked up) with R366E
notes: SNX32 with R366E, by site directed mutagenesis of HA-tagged SNX32; source: HeLa, transfected, overexpressed, in lysate
GFP-SNX4
  ratio of HA to GFP band intensity: 0.49

B4: HA-SNX32 Q259R (natural protein, UniProt Q86XE0 1-403, looked up)
chain: T3 sequence (looked up) with Q259R
notes: SNX32 with Q259R, by site directed mutagenesis of HA-tagged SNX32; source: HeLa, transfected, overexpressed, in lysate
GFP-SNX4
  ratio of HA to GFP band intensity: 0.75

B5: HA-SNX32 E256R (natural protein, UniProt Q86XE0 1-403, looked up)
chain: T3 sequence (looked up) with E256R
notes: SNX32 with E256R, by site directed mutagenesis of HA-tagged SNX32; source: HeLa, transfected, overexpressed, in lysate
GFP-SNX4
  ratio of HA to GFP band intensity: 0.66
